The values that follow come from patent EP3529371B1.

Common to all, as to assay: cell-based or functional assay
Assay [1] deals with H6tHAtev1S(146-206)LS D179KA199R (Photinus pyralis) (UniProt P60877).
Assay [2] concerns the target H6tHA1S(146-206)-sfGFP-S (Macaca mulatta (Rhesus macaque)) (UniProt P60877).
Assay [3] has as its target H6tHAtev1S(140-197)L (Photinus pyralis) (UniProt P60877).
The target in assay [4] is H6tHA1S(146-206)-NL-S (Macaca mulatta (Rhesus macaque)) (UniProt P60877).
Assay [5] addresses H6tHAtev1S(146-206)LS D179KN196QQ197NR198K (Photinus pyralis) (UniProt P60877).
For assay [6], the target named is H6tHA1V(2-94)-sfGFP-S (Bos taurus (Bovine)) (UniProt P63026).
Chain of UniProt P63026 (P63026 2-94): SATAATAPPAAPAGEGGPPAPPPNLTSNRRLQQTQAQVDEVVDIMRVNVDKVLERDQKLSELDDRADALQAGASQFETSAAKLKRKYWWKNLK
In assay [7] the target is H6tHAtev1V(60-94)L (Photinus pyralis).
The target of assay [8] is H6tHA1V(2-94)-sfGFP-S (Bos taurus (Bovine)) (UniProt P63026). The source holds these as a separate data set.

Read-outs that look alike come from different tables or passages of the source.

Regarding “BoNT/E1 (recombinant, activated full-length) (from UniProt Q00496 2-1251) (enzyme)”, the EC50 of substrate cleavage, endopeptidase assay, JDZ-buffer, 1 h 37°C was determined as 1000 nM in assay [1], 0.2 nM in assay [3] and 1000 nM in assay [5]. In assay [2], this molecule showed an EC50 of cleavage of generic substrate with reporter sfGFP, JDZ-buffer, 1 h 37°C of 0.1 nM. The molecule also yielded an EC50 of cleavage of generic substrate with reporter NL, JDZ-buffer, 1 h 37°C in assay [4] of 0.2 nM.

As to “BoNT/A1 (recombinant, activated full-length) (from UniProt P0DPI1 2-1296) (enzyme)”, the EC50 of substrate cleavage, endopeptidase assay, JDZ-buffer, 1 h 37°C in assay [1] stood at 0.4 nM. The molecule also showed an EC50 of cleavage of generic substrate with reporter sfGFP, JDZ-buffer, 1 h 37°C in assay [2] of 0.03 nM. In assay [4], this molecule showed an EC50 of cleavage of generic substrate with reporter NL, JDZ-buffer, 1 h 37°C of 0.01 nM.

Take “BoNT/D (recombinant, activated full-length) (from UniProt P19321 2-1276) (enzyme)”: the EC50 of cleavage of generic substrate with reporter sfGFP, JDZ-buffer, 1 h 37°C in assay [6] came out at 1 nM.

For “BoNT/B1 (recombinant, activated full-length) (from UniProt B1INP5 2-1291) (enzyme)”, the EC50 of cleavage of generic substrate with reporter sfGFP, JDZ-buffer, 1 h 37°C in assay [6] was 0.02 nM. In assay [7], the EC50 of substrate cleavage, endopeptidase assay, JDZ-buffer, 1 h 37°C worked out at 0.6 nM and the fold increase of EC50 relative to generic H6tHAtev1V(2-94)LS was 10 fold.

For the molecule “BoNT/C (recombinant, activated full-length) (from UniProt P18640 2-1291) (enzyme)”, the EC50 of substrate cleavage, endopeptidase assay, JDZ-buffer, 1 h 37°C in assay [1] was 200 nM. In assay [2], the EC50 of cleavage of generic substrate with reporter sfGFP, JDZ-buffer, 1 h 37°C was 20 nM. The molecule further registered an EC50 of cleavage of generic substrate with reporter NL, JDZ-buffer, 1 h 37°C in assay [4] of 10 nM. For the same molecule, in assay [5], the EC50 of substrate cleavage, endopeptidase assay, JDZ-buffer, 1 h 37°C was found to be 0.6 nM and the fold decrease of EC50 relative to generic H6tHAtev1S(146-206)LS is 16 fold.

B1: BoNT/F1 (recombinant, activated full-length) (enzyme)
chain: MPVVINSFNYNDPVNDDTILYMQIPYEEKSKKYYKAFEIMRNVWIIPERNTIGTDPSDFDPPASLENGSSAYYDPNYLTTDAEKDRYLKTTIKLFKRINSNPAGEVLLQEISYAKPYLGNEHTPINEFHPVTRTTSVNIKSSTNVKSSIILNLLVLGAGPDIFENSSYPVRKLMDSGGVYDPSNDGFGSINIVTFSPEYEYTFNDISGGYNSSTESFIADPAISLAHELIHALHGLYGARGVTYKETIKVKQAPLMIAEKPIRLEEFLTFGGQDLNIITSAMKEKIYNNLLANYEKIATRLSRVNSAPPEYDINEYKDYFQWKYGLDKNADGSYTVNENKFNEIYKKLYSFTEIDLANKFKVKCRNTYFIKYGFLKVPNLLDDDIYTVSEGFNIGNLAVNNRGQNIKLNPKIIDSIPDKGLVEKIVKFCKSVIPRKGTKAPPRLCIRVNNRELFFVASESSYNENDINTPKEIDDTTNLNNNYRNNLDEVILDYNSETIPQISNQTLNTLVQDDSYVPRYDSNGTSEIEEHNVVDLNVFFYLHAQKVPEGETNISLTSSIDTALSEESQVYTFFSSEFINTINKPVHAALFISWINQVIRDFTTEATQKSTFDKIADISLVVPYVGLALNIGNEVQKENFKEAFELLGAGILLEFVPELLIPTILVFTIKSFIGSSENKNKIIKAINNSLMERETKWKEIYSWIVSNWLTRINTQFNKRKEQMYQALQNQVDAIKTVIEYKYNNYTSDERNRLESEYNINNIREELNKKVSLAMENIERFITESSIFYLMKLINEAKVSKLREYDEGVKEYLLDYISEHRSILGNSVQELNDLVTSTLNNSIPFELSSYTNDKILILYFNKLYKKIKDNSILDMRYENNKFIDISGYGSNISINGDVYIYSTNRNQFGIYSSKPSEVNIAQNNDIIYNGRYQNFSISFWVRIPKYFNKVNLNNEYTIIDCIRNNNSGWKISLNYNKIIWTLQDTAGNNQKLVFNYTQMISISDYINKWIFVTITNNRLGNSRIYINGNLIDEKSISNLGDIHVSDNILFKIVGCNDTRYVGIRYFKVFDTELGKTEIETLYSDEPDPSILKDFWGNYLLYNKRYYLLNLLRTDKSITQNSNFLNINQQRGVYQKPNIFSNTRLYTGVEVIIRKNGSTDISNTDNFVRKNDLAYINVVDRDVEYRLYADISIAKPEKIIKLIRTSNSNNSLGQIIVMDSIGNNCTMNFQNNNGGNIGLLGFHSNNLVASSWYYNNIRKNTSSNGCFWSFISKEHGWQEN
As for B1, in assay [8], the EC50 of cleavage of generic substrate with reporter sfGFP, JDZ-buffer, 1 h 37°C stood at 0.06 nM.
